The target in data set [1] is Tdp1(Δ148) H263A (Homo sapiens, UniProt Q9NUW8 149-608, H263A). Briefly: UV cross-linking (312 nm), SDS-PAGE and MS; cross-link via F259; Cross-linking: 10 mM Tris-HCl pH 7.5, 100 mM KCl, 5 µM each, 15 min room temperature then 15 min on ice, UV 312 nm 30 min on ice. Crystal complex: 50 mM HEPES pH 7.8, 50 mM NaCl, on ice, 110 µM complex. The conditions noted are these: protein: recombinant; tags: N-terminal His6; label: 5' 32P (tracer); 3' biotin-TEG; single strand.
Tdp1(Δ148) H263A, sequence (Q9NUW8 149-608 H263A): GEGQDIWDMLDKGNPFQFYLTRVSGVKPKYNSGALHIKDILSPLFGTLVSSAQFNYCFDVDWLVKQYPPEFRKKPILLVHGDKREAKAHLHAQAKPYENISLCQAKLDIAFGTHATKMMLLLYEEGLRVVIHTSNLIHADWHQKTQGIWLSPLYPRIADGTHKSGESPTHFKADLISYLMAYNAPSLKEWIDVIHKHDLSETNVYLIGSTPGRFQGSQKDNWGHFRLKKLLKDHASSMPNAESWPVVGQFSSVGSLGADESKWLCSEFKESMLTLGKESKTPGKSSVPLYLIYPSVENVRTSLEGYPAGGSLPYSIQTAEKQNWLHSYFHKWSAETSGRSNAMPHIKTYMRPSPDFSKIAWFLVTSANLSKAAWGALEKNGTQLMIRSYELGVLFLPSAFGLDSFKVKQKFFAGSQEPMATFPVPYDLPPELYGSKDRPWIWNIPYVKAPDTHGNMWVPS

In data set [2] the target is T1, Tdp1(Δ148) (Homo sapiens, UniProt Q9NUW8 149-608). Briefly: X-ray crystal structure (2.04 Å); 3'-phosphorylated product complex; Cross-linking: 10 mM Tris-HCl pH 7.5, 100 mM KCl, 5 µM each, 15 min room temperature then 15 min on ice, UV 312 nm 30 min on ice. Crystal complex: 50 mM HEPES pH 7.8, 50 mM NaCl, on ice, 110 µM complex. The conditions noted are these: protein: recombinant; tags: N-terminal His6; chain copies: 2; blunt, self-complementary, 2 copies of one strand.
T1 sequence (Q9NUW8 149-608, stated change not applied): as the sequence (Q9NUW8 149-608 H263A) above, with A115H counted along it

Data set [3] deals with T1, Tdp1(Δ148). Nature of the data set: X-ray crystal structure (3.18 Å); product complex; Cross-linking: 10 mM Tris-HCl pH 7.5, 100 mM KCl, 5 µM each, 15 min room temperature then 15 min on ice, UV 312 nm 30 min on ice. Crystal complex: 50 mM HEPES pH 7.8, 50 mM NaCl, on ice, 110 µM complex. Conditions: protein: recombinant; tags: N-terminal His6; chain copies: 2; blunt, self-complementary, 2 copies of one strand.

As to GTAGAGGATCTAAAAGACUT (ssDNA, 5-iodouracil (5-iodo-dU) at nt 19) [5IdU(-2) 20-mer], the binding result in data set [1] is on record as “binds”.

B1: -2G 12-mer duplex (dsDNA)
DNA 1: CACTGCGCAGTG
DNA 2: CACTGCGCAGTG
As to B1, in data set [2], the binding result is on record as “binds”.

B2: -2T 12-mer duplex (dsDNA)
DNA 1: CAATGCGCATTG
DNA 2: CAATGCGCATTG
With B2, in data set [3], the binding result is “binds”.

On to GTAGAGGATCTAAAAGAUTT (ssDNA, 5-iodouracil (5-iodo-dU) at nt 18) [5IdU(-3) 20-mer], for which the binding result in data set [1] was “binds”.

The values are drawn from article PMC5750209, “Structural basis for DNA 3′-end processing by human tyrosyl-DNA phosphodiesterase 1”.
